Experimental findings from article PMC4980823 (Science (New York, N.Y.), 2016) are described below.

Where two headings read alike, the source gives them in different places.

The labels stand for the following.
B1: Rpn13 Pru domain (amino acids 1–150), no substitutions (domain or fragment, yeast, UniProt O13563 1-150, looked up)
chain: MSMSSTVIKFRAGVCEYNEDSRLCTPIPVQGEIEIKPNEEEELGFWDFEWRPTEKPVGRELDPISLILIPGETMWVPIKSSKSGRIFALVFSSNERYFFWLQEKNSGNLPLNELSAKDKEIYNKMIGVLNNSSESDEEESNDEKQKAQDV
B2: Rad23 UBL domain (amino acids 1–78) (domain or fragment, yeast, UniProt P32628 1-78, looked up)
chain: MVSLTFKNFKKEKVPLDLEPSNTILETKTKLAQSISCEESQIKLIYSGKVLQDSKTVSECGLKDGDQVVFMVSQKKST
B3: Rpn1 (412–625) (domain or fragment, yeast, UniProt P38764 412-625, looked up)
chain: GDGMTSAVASIGSIYQWNLDGLQQLDKYLYVDEPEVKAGALLGIGISASGVHDGEVEPALLLLQDYVTNPDTKISSAAILGLGIAFAGSKNDEVLGLLLPIAASTDLPIETAAMASLALAHVFVGTCNGDITTSIMDNFLERTAIELKTDWVRFLALALGILYMGQGEQVDDVLETISAIEHPMTSAIEVLVGSCAYTGTGDVLLIQDLLHRLT

Data set [1] deals with T1, ubiquitin (UniProt P0CG48 1-76). The data set is described as follows: NMR titration.
Data set [2] addresses B3. Nature of the data set: ITC. (In general: In ITC the heat of successive injections is recorded.)
Data set [3] concerns the target T1, ubiquitin. Nature of the data set: NMR titration. The source holds these as a separate data set.
Data set [4] deals with the molecule itself. The data set is described as follows: dynamic light scattering.

On to B1, for which the binding result in data set [1] is given as “binds”. For orientation: Kd means the constant that tells how readily two partners part at equilibrium. Read a high Kd as a looser complex. Regarding B2, the dissociation constant (Kd) in data set [2] is 64 ± 25 nM. Take B3: the binding result in data set [3] and in data set [4] was “binds” each time.
